Here are results for two molecules from publication PMC7356819, “Lanthanide-Dependent Methanol and Formaldehyde Oxidation in Methylobacterium aquaticum Strain 22A” (Microorganisms, 2020).

Data set [1] deals with T1, Hgd (S-hydroxymethyl glutathione dehydrogenase) (Methylobacterium aquaticum, UniProt A0A0C6FVV4).
T1 construct: gene adhC; native enzyme in cell-free extract of strain 22A; activity absent in the hgd deletion mutant
Briefly: NADH formation at […] nm in cell-free extract, hgd deletion mutant as control. The data set is classed as biochemical. The note with it: S-hydroxymethylglutathione formed in situ from formaldehyde and glutathione; NAD, sodium phosphate pH 7, premix at 25 °C.

Substrate in data set [2]: C=O
Briefly: purified protein. The data set is classed as biochemical, Methylobacterium aquaticum. As to conditions: PMS and DCPIP as electron acceptors, ammonium chloride, La3+-loaded enzyme (0.58 La per monomer), Tris-HCl pH 9.0, 30 °C, formaldehyde prepared from autoclaved paraformaldehyde.

Substrate in data set [3]: CO
Briefly: purified protein. In kind it is biochemical, Methylobacterium aquaticum. The note with it: PMS and DCPIP as electron acceptors, ammonium chloride, La3+-loaded enzyme (0.58 La per monomer), Tris-HCl pH 9.0, 30 °C.

A word on the Km: it is the concentration of substrate that gives half-maximal velocity.

T1 sequence (A0A0C6FVV4 entry or part of it): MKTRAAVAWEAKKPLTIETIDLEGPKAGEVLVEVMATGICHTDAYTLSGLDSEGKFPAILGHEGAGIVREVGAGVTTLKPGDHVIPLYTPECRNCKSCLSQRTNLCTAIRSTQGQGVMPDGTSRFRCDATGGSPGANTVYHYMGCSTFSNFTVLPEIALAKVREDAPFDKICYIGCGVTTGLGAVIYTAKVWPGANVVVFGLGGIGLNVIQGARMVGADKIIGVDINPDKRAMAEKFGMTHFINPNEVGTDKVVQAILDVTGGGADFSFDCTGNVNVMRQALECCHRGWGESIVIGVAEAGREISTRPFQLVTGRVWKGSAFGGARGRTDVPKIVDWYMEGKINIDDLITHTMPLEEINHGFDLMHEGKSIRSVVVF

Consider `N[C@@H](CCC(=O)N[C@@H](CSCO)C(=O)NCC(=O)O)C(=O)O` [S-hydroxymethyl glutathione], for which the “NADH formation at 340 nm in cell-free extract, hgd deletion mutant as control” value in data set [1] is “hgd indeed encodes S-hydroxymethylglutathione dehydrogenase”.

B1: XoxF1-His (XoxF1, Ln3+-dependent methanol dehydrogenase) (Methylobacterium aquaticum) (protein)
chain: NEDVLKRTANPAEQVLQTVDYANTRYSKLDQINAGNVNKLQVAWTFSTGVLRGHEGSPLVVGDVMYVHTPFPNIVYALDLNQDGKILWKYEPKQDPNVIPVMCCDTVNRGLAYADGAIFLHQADTTIVSLDAKSGKVNWSVQNGDPKIGETNTATVLPVKDKLIVGIAGAEYGIRGHITAYDLKTGKQAWRAYNLGPDAEMKIDPEKTTELGKPVGKDSSIKTWEGDQWKTGGASTWGWYSYDPKLNLVYYGTGNPSTWNPKQRPGDNKWSMTIFARDADTGVAKWVYQMTPHDEWDYDGINEMILTDQKIGDKERPLLTHFDRNGFGYTLDRATGELLVAEKYDPAVNWATKVDQDKSSKTYGRPLVVAKYSTDQNGEDTNSKGICPAALGSKDQQPAAYSPKTNLFYVPTNHVCMDYEPFRVSYTPGQPYVGATLSMYPAPNSHGGMGNFIAWDGTAGKIKWSNPEQFSVWSGALATAGDVVFYGTLEGYLKAVDSKTGKELYKFKTPSGIIGNVMTFQHKGKQNIAVLSGVGGWAGIGLAAGLTDPNAGLGAVGGYAALSSYTNLGGQLTVFNLPN
notes: His-tagged (primer-encoded at 3' end, C-terminal), tag kept; Ni-NTA; ca. 60 kDa monomer
With B1, the Km worked out at 340 µM in “purified protein [2]” and 30 µM in “purified protein [3]”.
